{"source": "the DeepSol protein solubility set", "experiment": "soluble on expression in E. coli; label from the status in PepcDB or PDB records"}
{"sequence": "MVEKEIDYLCSQYGLKPTNLSKFTLKLNFPDPDLKYGFSGEDNSLYLPLYHELNVSSSLPGEMFCMVYIQLILDPDKVNSEYLADFFNNPLGLKIRKGWEARGFVLRPETRNSEEVQESQQTSALNNPALLSGKSGFSGISYPVTGETSSENGDSIYSICQGSDGMTYVLPDSASPVPEILSFPDLDLESLMHSKLYLPDLQVQLEILKIKALTKELISQLNIFECRLSTYPKSMSHIRRKLELIREAVKLANDSDYILELIRRGESKRLEFKSTLRMNLMTGKPDWNIQHAVLKTIVAYLNTDGGILLVGVSNDGEILGIKNDGFPNEDRFLLHFKQLIKQHIGLNYSPMIEYTLVPVNGKEVLEIACKKSDEAVFLKTDKNDEEFYIRTGPSSERLTGSKLIEYVNRRYNGKSDAAALEHHHHHH", "values": [{"measurement": "soluble on expression in E. coli", "value": "soluble"}]}
{"sequence": "MSLRESVLKIYNWADYIDEDMLAEFPRWYKEQTGEDIRIVYQTFDINEIMLTKIERGHEDFDVVCPSEYIIERMLRKGLLLPIDTVFGKTPNYLHNESPYIREQLDKLSWSGHRASDYAIGYMWGTAGILFNTDHVPAEDARTWASLWNLKYENKILMKESYRDAYGTALIYANAEDLKKGKVTVEELMNNYSQASIDTVEKYLKAMKPLIAGWEADFGKEMMTKGKAWLNMTWSGDAVWAIEEAEGVGIHLDYEVPVEGSNVWYDGWVIPKYARNKKAASYFINYLCRPDVALRNMDACGYVSAVATPEILEAKIDTTLSYFADLSYFFGPAADSIQIDKVQYPDRTVVERCAMIRDSGDKTELVLEMWSRVKGDNEGHHHHHH", "values": [{"measurement": "soluble on expression in E. coli", "value": "soluble"}]}
{"sequence": "MSLKKATLKDIAEYFGVSISTVSRALSGKPGVSSELREKILEKAREIGYTPNLMALGLKKGNTRTVGVLIPELSANFFADIVSSIEKSLFHLGYRLILCSTDDDPVKEREHLQLLLDQKVEGILSAPVNVKENKDIYNSIINHFKIPVVFFDRLVEGVDSDFVISDNREGMEILVNYLVKHGHKKIGLIHPLRGSFTGEERLKGFLLFKDSIEIREEWIRDGRSSEQGGYESFLRIMTSQERPTAIVIGNNLMTLGVLKAAKELNIKIPEDISLVSFDDAYWNEIFDPPITCVRQDPQQIGLIAATILLDRMKNRKKPSPRMQVVLKVKFVERSSVRTIKTLKDEGHHHHHH", "values": [{"measurement": "soluble on expression in E. coli", "value": "soluble"}]}
{"sequence": "MSLEKAARHKQEVDTVQDKKVVNITGQGSTSRFFLPTALIRLRDASAQSIRTVLNQFFDRADDALFELADRAGTDQEQTRYFDAMRELRLRRKSMTVAVLHHVGQAFNDIGKFRPQSTVSSLDSVDEGFLSLLDHAELEQQVAIDNMVTKLRYQYSEALRHLSLRVRHLLPGVTLEDDQMPLCPEVLCGGLAAASKDLDVDIKARLIVLKLFDQLLVTSLGEVYHGANVTLIKEGVLPDSKAVRPVQTARSRQGAPVPPPSVVYREADWYGVGQPQAEVSAATFSQLSALLRQGQPAYGDGQAPASGGQWLQTDALLARLSQVQTAFGNDPGAPLVSLSQQLQPVLQNSSGQSLRPGQVDNDVINLVAMLFEFILDDRHLHSVMKSLLGRLQIPILKVALTDKNFFNRGGHPARKLLNEMALAATGWTEKRPGQRDPLLDKISAVVNRILAEFSTDVSLFNELLDDFNQFSDLDQRRSDLVEQRLRDAEEGRARHEQATADTKELLHEAMDGRLLPEPVQDMLNGPWSHYLHWLALHESTDSEAWQRAKTLTEQLIWTIDPVPLTATTHELLQQAIPQVIEQLRGALEGVAWDGLSVEMVVRDLELVHLDVFQRLVIAPSEAAGNDHAQIDDSQEAPAVRADAVPSDTTNTSADVSHPAPALPVAADDPKEAVVARVPEPTRAQPVVAEEWLAKADGLRVGCWLELNRDGSQIRCKLAAFIRAVDKYIFVNRSGAKVAEYRRNELAEMMAQGHIEILDDGLIFDRALESIIDNLRTSRREGHHHHHH", "values": [{"measurement": "soluble on expression in E. coli", "value": "not soluble"}]}
{"sequence": "QAVGGKIADDAQKVAGLYAEKKRTNWTQANGVAGKISHKIQSLLGMRDAGSRVQAFVAFMADGKGRPGATMLDLGDGWMRATRVIKGEAALIDFQCDSDGKVVDARHPGRFPVLPQGNEREAFKTVLQELKFRGAETLSKVPVYYVNRNTRGYVIPTHGYVVAGHPNRGRKSGAVLYGVGGDPKRGPVALDEKLLGHLVGRSDSKTSSKLSAPVKAAISALAGASFATREDFYDAYCAVRGDAVDPLERHNEISSIYRLLPLSTMEMWPKKADDYRVARPAAPERDLRAFENLPKDIGRKAQLKKVSNVDSIDLLEAKRQFTLHQLYQDEMLGRNGTGVPSADFKPKVDAQRRDQLVASTPKFQRLPPHTTDKVGNCNTGASSLLQRAVDTYTEKNNLPPEKVTAASIFGIGSSHRLAIWDPLDGSSSNKSSKDR", "values": [{"measurement": "soluble on expression in E. coli", "value": "not soluble"}]}
{"sequence": "MSLGDFSELARVNGEPVYVKEYKMKLLSNTTEVINYFSQSYAVETKENFRTDSYSGEAPVEMARKKALDDIVEVKVQQILAKEKGIIESTDYREFLKELENENRQRKDALKSNKVVYGPDNYGEIEYFNYSFDNMVSKLKEKLKENELSIPEEKLESMYNLLKDTRFKLPDDIKIQVISIGFTDEKGIINDDLKSKARVKIEEAKKRIDNGEPFEEVALDYNPKSGVLEYVFTKEKQMAKDISHPELLDEALKLKPGQVSEIIERSTDFVLILCKEKKSTGYLPYKDARKQLLDELIEKDYQEYIDKLVEQADVKINEKLYRRINVNEGHHHHHH", "values": [{"measurement": "soluble on expression in E. coli", "value": "soluble"}]}
{"sequence": "MGSDKIHHHHHHMLLVENFDLRATMEQPTSFDEMWGTSGSLREPYREFHDWFGSEDPARLRKKQRDADKLFRLTGITFNVYGKAEAEERLIPFDIIPRIISGSEWARLSRGIEQRVRAINAFLYDIYHKQEIVKAGRIPKEMISRNDAFLPHMIGVEPPGGVYTHIVGIDLVRTGPGEFYVLEDNARTPSGVSYMLENRETMLQMFPELFSQNRVQPVSNYPTDLRRSLAASAPQSCTGKPVVAVLTPGIYNSAYFEHAFLADKMGVELVEGQDLRVIDGRVAMRTTRGYKPIDVLYRRVDDEFLDPLNFNPESALGVPGIMDVYRAGNITIANAPGTGIADDKAIYSYMPEIVEFYTGERPLLQNVQTWRCSEPDALAYVLDNLEDLVVKEVHGSGGYGMLIGPTASKKDLAAFRRKLKARPGNYIAQPTLALSTVPIFSRAGLSPRHVDLRPFVLCSPNKVHITPGGLTRVALKKGSLVVNSSQGGGTKDTWVLED", "values": [{"measurement": "soluble on expression in E. coli", "value": "not soluble"}]}
{"sequence": "MKSIHYTKAVSGTERMTFGSNDEWERIVEEMLEFEKICIPFHSTSHSPDILFKLHGRTNEKNLMIVGIACKGRWSRNGIRWNEILEEAHKFLKPVHDQVLTSHPTWHCMLIIMSTQLATNVSEDLNHSSRCYSFGDSVGDFVIPHNCELVILSEADVENFIGKDILSNLRNAFKAVDNPHSRNIGISTLQKIVLLLSKNI", "values": [{"measurement": "soluble on expression in E. coli", "value": "not soluble"}]}
{"sequence": "MSTKELEERKVCFFCKILGFLSFPAIKIRIGTPANTISRHLTGFASYCIHLAVGVAHTRPEPELADDSRCYGNILDLVKRKKVTNWTQTRLVVEGKLGEGLRGIAYKVKHRNTMKCLKLLPLSWTSRNKEALEDLVALRSLKTIKKETPNYLTFFDSFVLTNLPASTQDKLNQLDPQCPATHYLGLLVELGSNSLDNTMLTTAVEGLSIVKQLVLSLVIAKRRLDTNHNDVHPGNVLVKRSASPKTLKYTLDGKVIRIPSHGLVVGIIDFSEASFGRANGNSDVGFLSFITEEISKTLSKAENRTFQTAIDGLTDARSITAIYPNASIFKKH", "values": [{"measurement": "soluble on expression in E. coli", "value": "not soluble"}]}
{"sequence": "MGSDKIHHHHHHMKNVNQELLNHVILHKDRIPHFHKDFPLILFWSHRSGCTTLANWFFFQIGLFNEAKKYHDFIHYYEFWVYKNNTNYIPELQNGLLTAEKAVCKLVRNPYTRAVSSFLLLADNPYAIPQWESIRQYLYNDKYSNRGISFKQFLYYVRALGPNSLTMDIHFSQQYVPGEENFIQHYIPLEDFNTQITKIEHTYDLVKSNLALLTNSDHHRAHKMMYTGSYAELSITDVAFPRFPTYESFYDEETMALVTEIYAQDFEMYPYTKGIF", "values": [{"measurement": "soluble on expression in E. coli", "value": "not soluble"}]}
{"sequence": "MSLSNGELAILVFGYPETMANQVIAYFQEFGTILEDFEVLRKPQAMTVGLQDKQFVPIFSGNSWTKITYDNPASAVDALLENGAVFNGVLLGVIPYTKDAVERLQKRKLTSSEDIGSGITTAAAETKHKDQGTIENDIPSQYMAKLDIKDGSNLFISTNTTSGTKVDPKKEQKKGVVGTVLRYFFGFNEGHHHHHH", "values": [{"measurement": "soluble on expression in E. coli", "value": "soluble"}]}
{"sequence": "MGSDKIHHHHHHMKIGILTFHDAHNYGAMLQCYALQQFLFKKGYNVEVIDYRPAFYQKQYHRHSLCPWIGKNPVRTMKSIYYNYYLFNKRCAAFSDFHNRHLYMSIPATRTNIPQSYDAYIVGSDQIWNPQLTNGFHDVYFCDFCFPKGKSRFIAYAPSMEISRLSTQEAEYLTRVLNCFDALSVRESSLIPILQPLVSQPIQQVLDPTLLLDATAWNPLIGKCPKNRPYVVLYQVRENPAVRMKAFEIAQSIGGIVVELTARIDCHYSTKYQTASPADFVTYIRYATYVVTTSFHGTAFSLIFNRPFYTFSLGDNFDSRSASLLESVNLTERLVCPDEQFEISLIDFKQANKRLKHLRKQSCDFLRQSLHERQEQ", "values": [{"measurement": "soluble on expression in E. coli", "value": "not soluble"}]}
{"sequence": "MTSAWNEEWRRRRLPALAGQEWDLIVVGGGISGAGILREAARRGWRCLLLEQRDFAWGTSSRSSKMVHGGLRYIAKGQWRLTRDSVRERQRLLGEAPGLVEPLSFVMAHYRGGFPGPRLFGGLLSVYDALAGRRNHRFYDAAALRYLAPGLKEQRLLGGTRFFDAVTDDARLVLRVLAEARHDGGEAFNGMRVRELLREGGQVVGLRAEDRESGELFDFRCRALALATGAWADELRQPGGSEHIRPLRGSHLLLPAWRLPVAHAFSFMHATDRRPVFVFPWEGATVVGTTDLDHRDGLGEDARISRAELDYLLAACAQQFPAAAIEARDVLSTWAGVRPVVSSGDDSGKPSDEKREHVLWREPGCVTLAGGKLTTFRPLAVEVLQACAPLLGRTVTDDGAAVFGACEGPLIDGLGSGQRRRLAGRYGRDLVRLKRLVDTLGTDCVGASETLWAELAFAAEAEMVLHLDDLLLRRTRLGLLLPGGGAAYLPRIRALCQARLGWDDPRWEREQQAYLDLWRRHYSLPVLEHHHHHH", "values": [{"measurement": "soluble on expression in E. coli", "value": "not soluble"}]}
{"sequence": "MGHHHHHHSHMRVFALQLESFKENLMQSLFNSIPKKSVIVLPEYVINPFFHHNMGLDVNEISDQSARAVEFLSQKCEELDLIVSAPVLLEEHSKIYKKIALISKESVKYYTQQRLIPYPHWDEESFFDNEKSAFKELLVFERDGLKFAPLFGFEAHFDEIWVQAKNQGVDVVLLSSVATFESNERWRLLCQMRAFCASCVVVRANRIGAYRQIIVEEDQKNEFLWKFYGDSFVALPNGAIEDSLEGKMGALNAQIDKNDIDEWAKLWHFRTIKEG", "values": [{"measurement": "soluble on expression in E. coli", "value": "soluble"}]}
{"sequence": "GCPHDCVFCNQNTITGEESKVNGDYVKSTVEDYLDTIPNKSATIEISFFGGTFTAINIEKQKELLSVARHYKEIGKIKYIRLSTRPDYIDDEILTNLKNYSVDIIELGVQSLDSEVLLKSGRGHTKEDVVKASRLIKKYGFTLGHQIMLGLPGDNAEKDIETTRKVICMKPNICRIYPALVIKDTAMEKMYNRGIYKPYDIEECVEI", "values": [{"measurement": "soluble on expression in E. coli", "value": "not soluble"}]}
{"sequence": "MAETVGERPESMSPKLDNATIAAQLGSLATALDEFNRNSGSQVEMSLLLQRVCDQVVDAIADADMAGISLLRDGRVVTVAYTDEAVREIDIPNFQALDGDYFGVAGTRKVVKARLGEAAARWPSVADNLDQAGMRSFLSAPLAVDEALAGTLNIYGQGDHGFSELDAVVLLVYTTAIEGLLRSARSVELARNEVSGLTKAMKSRAVIEQAKGIVMALRGVPADQAFEILVAQSQQEHVKLAEVARRIVESVTTNPE", "values": [{"measurement": "soluble on expression in E. coli", "value": "not soluble"}]}
{"sequence": "MIIQCQVKSVQPLATHTYQILLQPEHAVAYQAGQYLMVVMGEKDKRPFSLASSPCRSNGELELHIGAADHSAFAHQVVEKFQQAHLNQTWVEVDVPHGNAALQESERPLLLIAGGTGFSYVRSILDHCLSQGKTQPIYLYWGARDAAQLYALNELQELAKQHAHLQVVPVVEQAQDDWAGKVGNVLQAINNDFASLEAFDIYIAGRFEMAGAAREQFTQNKQARRDRMFADAYAFI", "values": [{"measurement": "soluble on expression in E. coli", "value": "not soluble"}]}
{"sequence": "MSAQAAKVSKKELNSNHDGADETSEKEQQEAIEHIDEVQNEIDRLNEQASEEILKVEQKYNKLRQPFFQKRSELIAKIPNFWVTTFVNHPQVSALLGEEDEEAMHYLTRVEVTEFEDIKSGYRIDFYFDENPYFENKVLSKEFHMNESGDPSSKSTEIKWKSGKDMTKRSSQTQNKASRKRQHEEPESFFTWFTDHSDAGADELGEVIKDDIWPNPLQYYLVPDM", "values": [{"measurement": "soluble on expression in E. coli", "value": "soluble"}]}
